Test results as given in paper PMC4100928, “Evolutionary Divergence in the Catalytic Activity of the CAM-1, ROR1 and ROR2 Kinase Domains” (PLoS ONE, 2014).

Columns and labels:
[1] = molecular target: T1, MuSK ICD (Homo sapiens, UniProt O15146); assay: autophosphorylation, anti-phosphotyrosine immunoblot; format: biochemical; settings: 2 mM ATP, 20 mM MgCl2, 0.2 mM orthovanadate, about 18 h at 4 °C
T1 sequence (O15146 519-869): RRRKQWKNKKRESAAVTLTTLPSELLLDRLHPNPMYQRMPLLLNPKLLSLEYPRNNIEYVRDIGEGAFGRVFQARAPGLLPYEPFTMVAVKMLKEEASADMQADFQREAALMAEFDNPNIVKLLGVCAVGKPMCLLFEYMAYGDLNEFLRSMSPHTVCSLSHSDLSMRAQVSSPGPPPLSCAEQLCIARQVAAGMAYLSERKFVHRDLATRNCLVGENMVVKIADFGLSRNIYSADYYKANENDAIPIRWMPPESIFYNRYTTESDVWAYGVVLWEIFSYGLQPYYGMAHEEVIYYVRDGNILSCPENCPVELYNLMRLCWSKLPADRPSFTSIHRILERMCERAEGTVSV

[2] = molecular target: T2, ROR1 ICD (Homo sapiens, UniProt Q01973, C482G); assay: [gamma-32P]ATP phosphocellulose paper binding assay, initial rates; format: biochemical; settings: 20 mM Mg2+ or 5 mM Mn2+; 5 mM activation loop peptide; 20 °C; limit of assay
T2 sequence (Q01973 428-937 C482G): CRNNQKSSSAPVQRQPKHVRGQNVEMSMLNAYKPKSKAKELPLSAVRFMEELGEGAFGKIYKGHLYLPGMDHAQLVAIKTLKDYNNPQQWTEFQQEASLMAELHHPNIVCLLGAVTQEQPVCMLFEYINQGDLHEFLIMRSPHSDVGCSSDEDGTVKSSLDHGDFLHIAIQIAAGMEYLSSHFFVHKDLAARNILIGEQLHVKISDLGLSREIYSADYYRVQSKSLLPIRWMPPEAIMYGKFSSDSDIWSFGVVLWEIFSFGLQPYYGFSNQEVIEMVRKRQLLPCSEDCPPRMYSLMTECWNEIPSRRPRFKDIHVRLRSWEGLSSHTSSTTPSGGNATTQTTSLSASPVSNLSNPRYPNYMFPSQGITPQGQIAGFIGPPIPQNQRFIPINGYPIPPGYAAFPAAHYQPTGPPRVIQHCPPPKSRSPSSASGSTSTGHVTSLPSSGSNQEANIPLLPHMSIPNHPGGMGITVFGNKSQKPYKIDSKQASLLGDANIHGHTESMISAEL
Excerpt: (§1) [gamma-32P]ATP phosphocellulose paper binding assay, initial rates on ROR1 ICD

[3] = molecular target: T3, ROR1 ICD (Homo sapiens, UniProt Q01973); assay: as above; format: biochemical; settings: 20 mM Mg2+ or 5 mM Mn2+; 5 mM activation loop peptide; 20 °C; limit of assay
T3 sequence (Q01973 428-937): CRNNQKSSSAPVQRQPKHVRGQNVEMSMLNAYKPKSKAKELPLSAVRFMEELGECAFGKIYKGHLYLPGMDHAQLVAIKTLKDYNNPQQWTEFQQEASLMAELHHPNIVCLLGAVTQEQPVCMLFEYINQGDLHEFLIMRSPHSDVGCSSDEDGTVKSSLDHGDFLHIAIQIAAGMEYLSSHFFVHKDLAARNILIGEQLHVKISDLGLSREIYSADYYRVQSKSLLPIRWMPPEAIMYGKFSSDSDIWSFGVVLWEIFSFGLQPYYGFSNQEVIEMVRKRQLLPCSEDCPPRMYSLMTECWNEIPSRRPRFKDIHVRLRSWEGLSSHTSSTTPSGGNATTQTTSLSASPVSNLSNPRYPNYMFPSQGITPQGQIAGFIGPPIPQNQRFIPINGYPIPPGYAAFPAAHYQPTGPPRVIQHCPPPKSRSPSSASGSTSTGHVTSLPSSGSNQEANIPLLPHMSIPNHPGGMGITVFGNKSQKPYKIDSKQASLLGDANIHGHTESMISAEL
Excerpt: as §1

[4] = substrate: Nc1ncnc2c1ncn2[C@@H]1O[C@H](COP(=O)(O)OP(=O)(O)OP(=O)(O)O)[C@@H](O)[C@H]1O; assay: as above; format: biochemical, Homo sapiens; settings: 20 mM Mg2+ or 5 mM Mn2+, 5 mM activation loop peptide, 20 °C, limit of assay
Excerpt: [gamma-32P]ATP phosphocellulose paper binding assay, initial rates on ROR2 ICD

[5] = substrate: Nc1ncnc2c1ncn2[C@@H]1O[C@H](COP(=O)(O)OP(=O)(O)OP(=O)(O)O)[C@@H](O)[C@H]1O; assay: as above; format: biochemical, Caenorhabditis elegans; settings: 5 mM activation loop peptide, 20 °C
Excerpt: [gamma-32P]ATP phosphocellulose paper binding assay, initial rates on CAM-1 ICD

[6] = 20 mM Mg2+ or 5 mM Mn2+, limit of assay
[7] = phosphorylated enzyme (pre-incubated with ATP/Mg2+) 10 µM, 20 mM Mg2+
[8] = unphosphorylated enzyme 10 µM, 20 mM Mg2+

What does the source list for Nc1ncnc2c1ncn2[C@@H]1O[C@H](COP(=O)(O)OP(=O)(O)OP(=O)(O)O)[C@@H](O)[C@H]1O [ATP]?
autophosphorylation, anti-phosphotyrosine immunoblot [1]: ICDs of receptors ROR1, ROR2, CAM-1 and MuSK were incubated overnight; Km [2]: > 15 mM; Km [3]: > 15 mM

B1: ROR2 ICD (Homo sapiens) (protein)
chain: CRNKQKASASTPQRRQLMASPSQDMEMPLINQHKQAKLKEISLSAVRFMEELGEDRFGKVYKGHLFGPAPGEQTQAVAIKTLKDKAEGPLREEFRHEAMLRARLQHPNVVCLLGVVTKDQPLSMIFSYCSHGDLHEFLVMRSPHSDVGSTDDDRTVKSALEPPDFVHLVAQIAAGMEYLSSHHVVHKDLATRNVLVYDKLNVKISDLGLFREVYAADYYKLLGNSLLPIRWMAPEAIMYGKFSIDSDIWSYGVVLWEVFSYGLQPYCGYSNQDVVEMIRNRQVLPCPDDCPAWVYALMIECWNEFPSRRPRFKDIHSRLRAWGNLSNYNSSAQTSGASNTTQTSSLSTSPVSNVSNARYVGPKQKAPPFPQPQFIPMKGQIRPMVPPPQLYVPVNGYQPVPAYGAYLPNFYPVQIPMQMAPQQVPPQMVPKPSSHHSGSGSTSTGYVTTAPSNTSMADRAALLSEGADDTQNAPEDGAQSTVQEAEEEEEGSVPETELLGDCDTLQVDEAQVQLEA
With B1 as the molecule, how does the kcat [4] read?
The kcat was <8.3e-06 s⁻¹.

What about the kcat/Km [4] of the same molecule?
Its kcat/Km is < 0.0005 M⁻¹ s⁻¹.

B2: ROR2 ICD (Homo sapiens; D482G) (protein)
chain: CRNKQKASASTPQRRQLMASPSQDMEMPLINQHKQAKLKEISLSAVRFMEELGEGRFGKVYKGHLFGPAPGEQTQAVAIKTLKDKAEGPLREEFRHEAMLRARLQHPNVVCLLGVVTKDQPLSMIFSYCSHGDLHEFLVMRSPHSDVGSTDDDRTVKSALEPPDFVHLVAQIAAGMEYLSSHHVVHKDLATRNVLVYDKLNVKISDLGLFREVYAADYYKLLGNSLLPIRWMAPEAIMYGKFSIDSDIWSYGVVLWEVFSYGLQPYCGYSNQDVVEMIRNRQVLPCPDDCPAWVYALMIECWNEFPSRRPRFKDIHSRLRAWGNLSNYNSSAQTSGASNTTQTSSLSTSPVSNVSNARYVGPKQKAPPFPQPQFIPMKGQIRPMVPPPQLYVPVNGYQPVPAYGAYLPNFYPVQIPMQMAPQQVPPQMVPKPSSHHSGSGSTSTGYVTTAPSNTSMADRAALLSEGADDTQNAPEDGAQSTVQEAEEEEEGSVPETELLGDCDTLQVDEAQVQLEA
What does the source list for B2?
kcat [4]: <8.3e-06 s⁻¹; kcat/Km [4]: < 0.0005 M⁻¹ s⁻¹

B3: CAM-1 ICD (Caenorhabditis elegans; K624R) (protein)
chain: RAKKKSQKTRHQNAHCSSAPSVINSAANSAYYRKLNGTSTPIMGRVPPHVEMTSLLPSAQHLGPPPYPMDQHLQQARRFPSQEPIDDNSYKVFEITPSQLSVREKIGEGQFGVVHSGIYTSGLFAPEPMAVAVRKCRHDATNAERAQLEQEIRAVATFDHPNVIKLIGVCYMDNSLLAVFEYMVHGDLHELLKVRVPPADHDMGGITEANAEFLYIATQIALGMEYLASMSFVHRDLATRNCLVGDTRTIKIADFGLMRTSYGSDYYKMLHRSWMPVRWMSKEAIEQGRFSEASDVWSFGVTLWEIWSFGRQPYEGASNQQVIELVANRHLLECPHNCPTNIYSLMVECWHENIERRPTFSEIRSRLQSWSLASPAHSILQQHNNRAGSHSGSSGAGRPPTHQRGYPSQKLHRRVEGASPLMKRHDANYAYSEDGDSD
For B3, which Km ([5]; 20 mM Mg2+) is on record?
The Km was 6.69 ± 1.12 mM.

And the kcat ([5]; 20 mM Mg2+)?
Its kcat is 0.00333 ± 0.00033 s⁻¹.

And the kcat/Km ([5]; 20 mM Mg2+)?
Its kcat/Km is 0.5 M⁻¹ s⁻¹.

B4: CAM-1 ICD (Caenorhabditis elegans; D744N) (protein)
chain: RAKKKSQKTRHQNAHCSSAPSVINSAANSAYYRKLNGTSTPIMGRVPPHVEMTSLLPSAQHLGPPPYPMDQHLQQARRFPSQEPIDDNSYKVFEITPSQLSVREKIGEGQFGVVHSGIYTSGLFAPEPMAVAVKKCRHDATNAERAQLEQEIRAVATFDHPNVIKLIGVCYMDNSLLAVFEYMVHGDLHELLKVRVPPADHDMGGITEANAEFLYIATQIALGMEYLASMSFVHRDLATRNCLVGDTRTIKIANFGLMRTSYGSDYYKMLHRSWMPVRWMSKEAIEQGRFSEASDVWSFGVTLWEIWSFGRQPYEGASNQQVIELVANRHLLECPHNCPTNIYSLMVECWHENIERRPTFSEIRSRLQSWSLASPAHSILQQHNNRAGSHSGSSGAGRPPTHQRGYPSQKLHRRVEGASPLMKRHDANYAYSEDGDSD
Which results are given for B4?
kcat [5, 6]: <8.3e-06 s⁻¹; kcat/Km [5, 6]: < 0.0005 M⁻¹ s⁻¹

B5: CAM-1 ICD (Caenorhabditis elegans; G599D) (protein)
chain: RAKKKSQKTRHQNAHCSSAPSVINSAANSAYYRKLNGTSTPIMGRVPPHVEMTSLLPSAQHLGPPPYPMDQHLQQARRFPSQEPIDDNSYKVFEITPSQLSVREKIGEDQFGVVHSGIYTSGLFAPEPMAVAVKKCRHDATNAERAQLEQEIRAVATFDHPNVIKLIGVCYMDNSLLAVFEYMVHGDLHELLKVRVPPADHDMGGITEANAEFLYIATQIALGMEYLASMSFVHRDLATRNCLVGDTRTIKIADFGLMRTSYGSDYYKMLHRSWMPVRWMSKEAIEQGRFSEASDVWSFGVTLWEIWSFGRQPYEGASNQQVIELVANRHLLECPHNCPTNIYSLMVECWHENIERRPTFSEIRSRLQSWSLASPAHSILQQHNNRAGSHSGSSGAGRPPTHQRGYPSQKLHRRVEGASPLMKRHDANYAYSEDGDSD
What does the source list for B5?
kcat [5, 6]: <8.3e-06 s⁻¹; kcat/Km [5, 6]: < 0.0005 M⁻¹ s⁻¹

B6: CAM-1 ICD (Caenorhabditis elegans; G599C) (protein)
chain: RAKKKSQKTRHQNAHCSSAPSVINSAANSAYYRKLNGTSTPIMGRVPPHVEMTSLLPSAQHLGPPPYPMDQHLQQARRFPSQEPIDDNSYKVFEITPSQLSVREKIGECQFGVVHSGIYTSGLFAPEPMAVAVKKCRHDATNAERAQLEQEIRAVATFDHPNVIKLIGVCYMDNSLLAVFEYMVHGDLHELLKVRVPPADHDMGGITEANAEFLYIATQIALGMEYLASMSFVHRDLATRNCLVGDTRTIKIADFGLMRTSYGSDYYKMLHRSWMPVRWMSKEAIEQGRFSEASDVWSFGVTLWEIWSFGRQPYEGASNQQVIELVANRHLLECPHNCPTNIYSLMVECWHENIERRPTFSEIRSRLQSWSLASPAHSILQQHNNRAGSHSGSSGAGRPPTHQRGYPSQKLHRRVEGASPLMKRHDANYAYSEDGDSD
With B6 as the molecule, how does the kcat [5, 6] read?
Its kcat is <8.3e-06 s⁻¹.

What about the kcat/Km [5, 6] of the same molecule?
The kcat/Km was < 0.0005 M⁻¹ s⁻¹.

B7: CAM-1 ICD (Caenorhabditis elegans) (protein)
chain: RAKKKSQKTRHQNAHCSSAPSVINSAANSAYYRKLNGTSTPIMGRVPPHVEMTSLLPSAQHLGPPPYPMDQHLQQARRFPSQEPIDDNSYKVFEITPSQLSVREKIGEGQFGVVHSGIYTSGLFAPEPMAVAVKKCRHDATNAERAQLEQEIRAVATFDHPNVIKLIGVCYMDNSLLAVFEYMVHGDLHELLKVRVPPADHDMGGITEANAEFLYIATQIALGMEYLASMSFVHRDLATRNCLVGDTRTIKIADFGLMRTSYGSDYYKMLHRSWMPVRWMSKEAIEQGRFSEASDVWSFGVTLWEIWSFGRQPYEGASNQQVIELVANRHLLECPHNCPTNIYSLMVECWHENIERRPTFSEIRSRLQSWSLASPAHSILQQHNNRAGSHSGSSGAGRPPTHQRGYPSQKLHRRVEGASPLMKRHDANYAYSEDGDSD
How did the Km [5, 7] turn out when B7 was run?
The Km was 3.35 ± 0.57 mM.

What about the kcat [5, 7] of the same molecule?
Its kcat is 0.0422 ± 0.003 s⁻¹.

And the kcat/Km [5, 7]?
The kcat/Km was 12.7 M⁻¹ s⁻¹.

And the Km [5, 8]?
Its Km is 3.53 ± 0.34 mM.

What about the kcat [5, 8] of the same molecule?
Its kcat is 0.0438 ± 0.00183 s⁻¹.

And the kcat/Km [5, 8]?
Its kcat/Km is 12.5 M⁻¹ s⁻¹.
